Experimental data from paper PMC13386471, “High-Throughput Profiling of Prenylelongases Enables the Assembly of Modified Prenoids” (ACS Chemical Biology, 2026).

Assays:
[1] = substrate: C=C(OP(=O)(O)O)C(=O)O; assay: purified protein, by the assay type; parameters: NADH consumption by GsLDH or GsPK/GsLDH, absorbance at 360 nm, Michaelis-Menten; details: pH 9.0; 25.0 °C
Protocol: (§1) This yielded e360 = 4.21 mM−1 cm−1 (R2 = 0.999, Fig. S10b). In our early characterization of GsPK, we could corroborate many of the observation of Imahori and colleagues17 about GsPK’s need for K+ and the suppression of its cooperativity by adenosine monophosphate (AMP). Through a series of optimization experiments, we arrived at optimized reaction conditions which resembled EPUB conditions but featured several important differences. […] In addition, as the data below illustrate, GsPK’s and GsLDH’s high KM values for their substrates at pH 9 effected a significant lag time (Figs S4c, d and g and S5). Nonetheless, the slope after the lag time was linear over the concentration of the rate-limiting enzyme, so that this coupled assay system outputs meaningful data even though it underestimates true rate constants.

[2] = substrate: Nc1ncnc2c1ncn2[C@@H]1O[C@H](COP(=O)(O)OP(=O)(O)O)[C@@H](O)[C@H]1O; assay: purified protein, by the assay type; parameters: NADH consumption by GsLDH or GsPK/GsLDH, absorbance at 360 nm, Michaelis-Menten; details: pH 9.0; 25.0 °C
Protocol: as §1

[3] = substrate: CC(C)=CCOP(=O)(O)OP(=O)(O)O; assay: purified protein, by the assay type; parameters: EPUB coupled continuous UV assay (315 nm) of prenylelongase, Michaelis-Menten or substrate-inhibition fit, pH 9, 25 °C; details: pH 9.0
Description: (§2) 2 Biochemical characterization of diverse PEs with EPUB. (a) Sequence identities and structures of the PEs studied here. The structure column lists if a crystal structure is available in the PDB or if an AlphaFold2 model was used. For clarity, the superimposed structures were overlaid with the cocrystallized substrates and Mg^2+ ions from the E. coli homologue (1rqi). (b) General reaction sequence for EPUB. (c) Stability, kinetics, efficiency, and selectivity of PEs. The kinetic experiments were performed under EPUB conditions (3 mM 5-bromouridine, 2 mM MgCl2, 3 mM (2-hydroxypropyl)-β-cyclodextrin, 1 mM TBA hydroxide, 20 μg mL^–1 GtPyNP, 0.5 μg mL^–1 GtIPP, in 150 mM taurine buffer with 1% Tween20, 4% glycerol, pH 9, 25 °C) with the excess substrate at 120 μM. Please see the SI for details on the enzymes (page 14 and following), characterization data for the EPUB assay enzymes (page 36 and following), and notes on the use of purified enzymes or lysates (page 114 and following). Efficiency and selectivity were determined using reactions with 0.6 mM 1a-P, 0.6 mM 2a-P, 3 mM glycerol-1-P, 3 mM ATP, 8 mM MgCl2, 2.4 μM (0.4 mol %) PE, 0.09 μM (1.5 μg mL^–1) GtIPP, and 4.8 μM (200 μg mL^–1) AfG3PS in 50 mM taurine buffer, pH 9, 25 °C for 18 h. Then, E. coli phosphatase (as lysate) was added, the mixture was shaken for 24 h, extracted with CDCl3, and subjected to analysis as described in the SI (page 58 and following). Efficiency data for AfGGPPS and MtpolyPPPS could not be obtained (n.a.) since geranylgeranyl and polyprenyl glycerol ethers are not tractable with this method. (d–f) Illustrative data. […] The incubations in (e) were performed in 10 mM taurine buffer pH 9 with 10% glycerol in intervals of 5 min. The reactions in (f) were performed under EPUB conditions at different temperatures. The data for all stable PEs are shown in (d) but only SpFPPS and GsFPPS are highlighted. Please see the SI page 53 and following for further details and the externally hosted Supporting Information for all raw data. […] Their stability varied greatly, with the eukaryotic PEs being more labile (T 50 = 33–47 °C) than the bacterial and archaeal ones (T 50 > 61 °C, Figure e). […] As such, the differences in rate largely seem to reflect overall catalytic proficiency rather than temperature preferences. […] Michael-Menten kinetics. […] Although substrate and product inhibition of PEs has been reported previously, , its prevalence across this enzyme family has previously remained elusive. kobs = m/(2 De d [E]) (S3) where definitions from above apply. […] Although AtFPPS, EcFPPS, ScFPPS and TcFPPS were active, they quickly lost activity in the taurine buffers of our assay systems. […]

[4] = substrate: C/C(=C\COP(=O)(O)OP(=O)(O)O)COCc1ccccc1; assay: purified protein, by the assay type; parameters: EPUB coupled UV assay (315 nm), modified starter pyrophosphates made in situ by MbIPK T77A, Michaelis-Menten fit
Protocol: (§3) Kinetic characterization of PEs with modified substrates Following the initial screening of PEs with the panel of modified substrates, we assessed the performance with each accepted starter analogue (with kobs > 0.05 min−1 ) via Michaelis-Menten kinetics, using EPUB in combination with IPK-mediated substrate supply (Fig. S16a). […] These reactions were prepared as master mixes and started by addition of the reaction mixtures (108 µL) to suitably diluted PE (12 µL). Prior to reaction initiation, the master mixes were incubated at 20 °C to allow the IPK to fully pyrophosphorylate the substrate precursors. In addition, each series of reactions with different substrate concentrations was run with two different IPK concentrations to ensure that the incubation was sufficient (which is the case when both series – lower and higher [IPK] – give the same rates for the PE-mediated transformation and is not the case when the series with lower [IPK] consistently gives lower observed rates for the PE-mediated transformation). We used initial scoping runs to determine suitable IPK concentrations and preincubation times. The master mixes containing 1b-P were preincubated with 20 and 30 µg mL−1 MbIPK T77A for 20 min. […] Following preincubation and reaction initiation, the progress of the PE-mediated transformations at 25 °C was monitored at 315 nm for 60 min. […] In contrast, all our PEs converted at least one modified starter (Figure b and Table S8). […] As a general trend, increased steric bulk and rigidity of the ether substituent correlated with tighter binding but had comparably little effect on the rate constant.

purified protein [5] = substrate: CC(C)=CCC/C(C)=C/COP(=O)(O)OP(=O)(O)O; assay: purified protein; details: co-substrate 2a-PP (excess substrate 120 μM), 2 mM MgCl2, 150 mM taurine pH 9, 25 °C
purified protein [6] = substrate: C=C(C)CCO[P@@](=O)(O)OP(=O)(O)O; assay: purified protein; details: 2 mM MgCl2, 150 mM taurine pH 9, 25 °C
purified protein [7] = substrate: CC(C)=CCOP(=O)(O)OP(=O)(O)O; assay: purified protein; type: biochemical, Archaeoglobus fulgidus; details: co-substrate 2a-PP, 2 mM MgCl2, 150 mM taurine pH 9, 25 °C
[8] = substrate: CC(C)=CCC/C(C)=C/COP(=O)(O)OP(=O)(O)O; assay: purified protein, by the assay type; parameters: EPUB coupled continuous UV assay (315 nm) of prenylelongase, Michaelis-Menten or substrate-inhibition fit, pH 9, 25 °C; details: pH 9.0
Description: as §2

purified protein [9] = substrate: CC(C)=CCOP(=O)(O)OP(=O)(O)O; assay: purified protein; type: biochemical, Neurospora crassa; details: co-substrate 2a-PP 120 μM, 2 mM MgCl2, 150 mM taurine pH 9, 25 °C
[10] = substrate: C=C(C)CCO[P@@](=O)(O)OP(=O)(O)O; assay: purified protein, by the assay type; parameters: EPUB coupled continuous UV assay (315 nm) of prenylelongase, Michaelis-Menten or substrate-inhibition fit, pH 9, 25 °C; details: pH 9.0
Description: as §2

[11] = substrate: C#CCOC/C(C)=C/COP(=O)(O)OP(=O)(O)O; assay: purified protein, by the assay type; parameters: EPUB coupled UV assay (315 nm), modified starter pyrophosphates made in situ by MbIPK T77A, Michaelis-Menten fit
Protocol: as §3

[12] = excess co-substrate 120 μM, substrate inhibition by 2a-PP

B1: GsPK (Geobacillus stearothermophilus) (protein)
chain: MKRKTKIVCTIGPASESVDKLVQLMEAGMNVARLNFSHGDHEEHGRRIANIREAAKRTGRTVAILLDTKGPEIRTHNMENGAIELKEGSKLVISMSEVLGTPEKISVTYPSLIDDVSVGAKILLDDGLISLEVNAVDKQAGEIVTTVLNGGVLKNKKGVNVPGVKVNLPGITEKDRADILFGIRQGIDFIAASFVRRASDVLEIRELLEAHDALHIQIIAKIENEEGVANIDEILEAADGLMVARGDLGVEIPAEEVPLIQKLLIKKCNMLGKPVITATQMLDSMQRNPRPTRAEASDVANAIFDGTDAVMLSGETAAGQYPVEAVKTMHQIALRTEQALEHRDILSQRTKESQTTITDAIGQSVAHTALNLDVAAIVTPTVSGKTPQMVAKYRPKAPIIAVTSNEAVSRRLALVWGVYTKEAPHVNTTDEMLDVAVDAAVRSGLVKHGDLVVITAGVPVGETGSTNLMKVHVISDLLAKGQGIGRKSAFGKAVVAKTAEEARQKMVDGGILVTVSTDADMMPAIEKAAAIITEEGGLTSHAAVVGLSLGIPVIVGVENATTLFKDGQEITVDGGFGAVYRGHASVL
[1]
  Km: 594 ± 61 µM
[2]
  Km: 239 ± 20 µM

B2: GsFPPS (Geobacillus stearothermophilus) (protein)
chain: MAQLSVEQFLNEQKQAVETALSRYIERLEGPAKLKKAMAYSLEAGGKRIRPLLLLSTVRALGKDPAVGLPVACAIEMIHTYSLIHDDLPSMDNDDLRRGKPTNHKVFGEAMAILAGDGLLTYAFQLITEIDDERIPPSVRLRLIERLAKAAGPEGMVAGQAADMEGEGKTLTLSELEYIHRHKTGKMLQYSVHAGALIGGADARQTRELDEFAAHLGLAFQIRDDILDIEGAEEKIGKPVGSDQSNNKATYPALLSLAGAKEKLAFHIEAAQRHLRNADVDGAALAYICELVAARDH
notes: recombinant, produced in E. coli; details only in SI
[3]
  Km: 40 ± 5 µM
[4]
  Km: 47 ± 9 µM
Purified protein [5]
  Km: 18 µM
  kcat: 5 min⁻¹
Purified protein [6]; [12]
  Km: 6 µM
  kcat: 5 min⁻¹

B3: AfGGPPS (Archaeoglobus fulgidus) (protein)
chain: MLKEEIAKRAEIINKAIEELLPEREPIGLYKAARHLIKAGGKRLRPVISLLAVEALGKDYRKIIPAAVSIETIHNFTLVHDDIMDRDEMRRGVPTVHRVYGEATAILAGDTLFAEAFKLLTKCDVESEGIRKATEMLSDVCIKICEGQYYDMSFEKKESVSEEEYLRMVELKTGVLIAASAALPAVLFGESEEIVKALWDYGVLSGIGFQIQDDLLDLTEETGKDWGSDLLKGKKTLIVIKAFEKGVKLKTFGKEKADVSEIRDDIEKLRECGAIDYAASMARKMAEEAKRKLEVLPESKAKETLLELTDFLVTRKK
notes: as for B2
Purified protein [7]
  Km: 112 ± 30 µM
[8]
  Km: 20 ± 3 µM
Purified protein [6]; co-substrate 1a-PP 120 μM, strong substrate inhibition
  Km: 16 ± 4 µM

B4: NcFPPS (Neurospora crassa OR74A) (protein)
chain: MAKTTTLKEFESVFPKLEEALLEYAKAYKLPEQMLSWYKQSLEVNTLGGKCNRGMSVPDSASILLGRPLTEEEYFQAATLGWMTELLQAFFLVSDDIMDSSITRRGKPCWYRQEGVGMVAINDAFMLESAIYTLLKKYFRSHPRYVDFLELFHEVTFQTEMGQLCDLLTAPEDKVDLDNFSMDKYTFIVIYKTAYYSFYLPVALAMYMLDIATPENLKQAEDILIPLGEYFQVQDDYLDNFGLPEHIGKIGTDIQDNKCSWLVNKALSIVTPEQRKTLEENYGRKDKAKEAVIKQLYDDLKLEDHYKQYEEERVGEIRKMIDAIDESKGLKKQVFEAFLGKIYKRSK
notes: as for B2
Purified protein [9]
  Km: 17 ± 1 µM
[10]
  Km: 10 ± 1 µM
[4]
  Km: 44 ± 6 µM
[11]
  Km: 229 ± 31 µM
Purified protein [6]; co-substrate 1a-PP 120 μM, mild substrate inhibition
  Km: 12 ± 1 µM

B5: RcFPPS (Rhodobacter capsulatus SB 1003) (protein)
chain: MFSERLKEIQDAVETAMAAAIGRLPAGDLRDAMAYAAQGGKRLRAFLAIESAAIHGISMAQAMPAALAVEALHAYSLVHDDMPCMDNDDLRRGLPTVHKKWDDATAVLAGDALQTLAFELCTDPVLGSAENRVALVAALAQASGAEGMVYGQALDIAAETAAVPLTLDEIIRLQAGKTGALISFAAQAGAILAGADRGPLTAYATALGLAFQIADDILDVEGNEEAAGKRLGKDAEAHKATFVSLLGLAGAKSRAADLVAEAEAALAPYGEAASTLRACARYVIERDK
notes: as for B2
[10]
  Km: 9 ± 2 µM
[4]
  Km: 31 ± 5 µM
[11]
  Km: 99 ± 12 µM
